The RNAGym collection of RNA variant scans (doi:10.7554/elife.90254)

B1: LINE1-full (parent)
chain: UACGUAGGUGGUUUUCCCCUGAUAGUGCUAAGGGGGCCUGGAAGUUUGGACUGGGCAGAGCUCAACACAGCGUGGCAAAGUGGCUGUGGCUAGACUGCCUCUCUGGAUUCCUCGUCACUCAGCAGGGCAUCUCUGAGAGAAAUGCC

Variants of: B1
Test: self-cleavage, relative activity (ratio to wild type); higher = more cleavage; in vitro, sequencing; the parent is a self-cleaving ribozyme

Row | Variant | self-cleavage
1 | UACGUAGGUGGUUUUCCCCUGAUAGUGCUAAGGGGGCCUGGAAGUUUGGACUGGGCAGAGCUCAACACAGCGUGGCAAAGUGGCUGUGGCUAGACUGCCUCUCUGGAUUCCUCGUAACUCUGCAGGGCAUCUCUGAGAGAAAUGCC [C116A A121U] | 1.21
2 | UACGUAGGUGGUUUUCCCCUGAUAGUGCUAAGGGGGCCUGGAAGUUUGGACUGGGCAGAGCUCAACACAGCGUGGCAAAGUGGCUGUGGCUAGACUGCCUAUCUGGAUUCCUCGUCACUCAGCAGGGCAUCUCUGAGAGAAAUGCC [C101A] | 1.38
3 | UACGUAGGUGGAUUUCCCCUGAUAGUGCUAAGGGGGCCUGGAAGUUUGGACUGGGCAGAGCUCAACACAGCGCGGCAAAGUGGCUGUGGCUAGACUGCCUCUCUGGAUUCCUCGUCACUCAGCAGGGCAUCUCUGAGAGAAAUGCC [U12A U73C] | 1.11
4 | UUCGUAGGUGGUUUGCCCCUGAUAGUGCUAAGGGGGCCUGGAAGUUUGGACUGGGCAGAGCUCAACACAGCGUGGCAAAGUGGCUGUGGCUAGACUGCCUCUCUGGAUUCCUCGUCACUCAGCAGGGCAUCUCUGAGAGAAAUGCC [A2U U15G] | 0.51
5 | UACGUAGGUGGUUUUCCCCUGAUGGUGCUAAGGGGGCCUGGAAGUUUGGACUGGGCAGAGCUCAACACAGCGUGGCAAAGUGGCUGCGGCUAGACUGCCUCUCUGGAUUCCUCGUCACUCAGCAGGGCAUCUCUGAGAGAAAUGCC [A24G U87C] | 0.19
6 | UACGUAGGUGGUUUUCCCCUGAUAGUGCUAUGGGGGCCUGGAAGUUUGGACUGGGCAGAGCUCAACACAGCGUGGCAAAGUGGCUGUGGCUAGACUGCCUCUCUGGAUUCCUCGUCACUCGGCAGGGCAUCUCUGAGAGAAAUGCC [A31U A121G] | 1
7 | UACGUAGGUGGUUUUCCCCUGAUAGUGCUAAGGGGGCCUGGAAGUUUGGACUGGGCAGAGCUCAACACAGCGUGGCAAAGUGGCUGUGGCUAGACUGCCCCUCUGGAUUCCUCGUCACUCAGCAGGGCAUCUCUGAGAGAAAUGUC [U100C C145U] | 2.29
8 | UACGUAGGUGGUUUUCCCCUGAUCGUGCUAAGGGGGCCUGGAAGUUUGGACUGGGCAGAGCUCAACACAGCGUGGCAAAGUGGCUGUGGCUAGACUGCCUCUCUGGAUUCCUCGUCACUCAGCAGGGCAUCUCUGAGGGAAAUGCC [A24C A138G] | 0.88
9 | UACGUAGGUGGUUUUCCCCUGAUAGUGCUAAGGGGGCCUGGUAGUUUGGACUGGGCAGAGCUCAACACAGCGUGGCAAAGUGGCUGUGGCUAGACUGCCUCUCUGGAUUCCUCGUCACUCAGCAGGGCAUCACUGAGAGAAAUGCC [A42U U132A] | 1.02
10 | UACGUAGGUGGUUUUCCCCUGAUAGUGCUAAGGGGGCCUUGAAGUUUGGACUGGGCAGGGCUCAACACAGCGUGGCAAAGUGGCUGUGGCUAGACUGCCUCUCUGGAUUCCUCGUCACUCAGCAGGGCAUCUCUGAGAGAAAUGCC [G40U A59G] | 0.05
11 | UACGUAGGUGGUUUUCCCCUGAUAGUGCUAAGGGGGCCUGGAAGUUUGGACCGGGCAGAGCUCAACACAGCGUGGCAAAGUGGCUGUGGCUAGACUGCCUCUCUGGAUUCCUCGUCACUCAGCAGGGCAUCUCUGAGAGGAAUGCC [U52C A140G] | 1.1
12 | UACGUAGGUGGUUUUCCCUUGAUUGUGCUAAGGGGGCCUGGAAGUUUGGACUGGGCAGAGCUCAACACAGCGUGGCAAAGUGGCUGUGGCUAGACUGCCUCUCUGGAUUCCUCGUCACUCAGCAGGGCAUCUCUGAGAGAAAUGCC [C19U A24U] | 1
13 | UACGUAGGUGGUUUUCCCCUGAUAGUGCUUAGGGGGCCUGGAAGUUUGGACUGGGCAGAGCUCAACACAGCGUGGCAAAGUGGCUGUGGCUAGACUGCCUCUCUGGAUUCCUCGUCACUCAGCAGGGCAUCACUGAGAGAAAUGCC [A30U U132A] | 1.22
14 | UACGUAGGUGGUUUUCCCCUGAAAGUGCUAAGGGGGCCUGGAAGUUUGGACUGGGCAGAGCUCAACACAGCGUGGCAAAGUGGCUGAGGCUAGACUGCCUCUCUGGAUUCCUCGUCACUCAGCAGGGCAUCUCUGAGAGAAAUGCC [U23A U87A] | 0.09
15 | UACCUAGGUGGUUUUCCCCUGAUAGUGCUAAGGGGGCCUGGAAGUUUGGACUGGGCAGAGCUCAACACAGCGUGGCAAAGUGGCUGUGGCUAGACUGCCCCUCUGGAUUCCUCGUCACUCAGCAGGGCAUCUCUGAGAGAAAUGCC [G4C U100C] | 1.81
16 | UACGUAGGUGGUUUUCCCCUGAUAGUGCUAAGGGGGCCUGGAAGUUUGGACUGGGCAGAGCUUAACACAGCGUGGCAAAGUGGCGGUGGCUAGACUGCCUCUCUGGAUUCCUCGUCACUCAGCAGGGCAUCUCUGAGAGAAAUGCC [C63U U85G] | 0.1
17 | UACGUAGGUGGUUUUCCCCUGAUAGUGCUAAGGGGGCCUGGAAGUUUGGACUGGGCAGAGCUCAACAUAGCGUGGCAAAGUGGCUGUGGCUAGACUGCCUCUCUGGAUUCCUCGUCACUCAGGAGGGCAUCUCUGAGAGAAAUGCC [C68U C123G] | 0.1
18 | UAUGUAGGUGGUUUUCCCCUGAUAGUGCUAAGGGGGCCUGGAAGUUUGGACUGGGCAGAGCUCAACACAGCGUGGCAAAGUGGCUGUGGCUAGACUGCCUCUCUGGAUUCCUCGUCACGCAGCAGGGCAUCUCUGAGAGAAAUGCC [C3U U119G] | 0.98
19 | UACGUAAGCGGUUUUCCCCUGAUAGUGCUAAGGGGGCCUGGAAGUUUGGACUGGGCAGAGCUCAACACAGCGUGGCAAAGUGGCUGUGGCUAGACUGCCUCUCUGGAUUCCUCGUCACUCAGCAGGGCAUCUCUGAGAGAAAUGCC [G7A U9C] | 0.68
20 | UAUGUAGGUGGUUUUCCCCUGAUAGUGCUAAGGGGGCCUGGAAGUUUGGACUGGGCAGAGCUCAACACAGCGUGGCAAAGUGGCUGCGGCUAGACUGCCUCUCUGGAUUCCUCGUCACUCAGCAGGGCAUCUCUGAGAGAAAUGCC [C3U U87C] | 0.12

Row | Variant | self-cleavage
21 | UACGUAGGUGGUUUCCCCCUGAUAGUGCUAAGGGGGCCUGGAAGUUUGGACUGGGCAGAGCUCAACACAGCGUGGCAAAGUGGCUGUGGCUAGACUGCCUCUCUGGAUCCCUCGUCACUCAGCAGGGCAUCUCUGAGAGAAAUGCC [U15C U109C] | 1.43
22 | UACGUAGGUGGUUUUCCCCGGAUAGUGCUAAGGGGGCCUGGAAGUUAGGACUGGGCAGAGCUCAACACAGCGUGGCAAAGUGGCUGUGGCUAGACUGCCUCUCUGGAUUCCUCGUCACUCAGCAGGGCAUCUCUGAGAGAAAUGCC [U20G U47A] | 0.51
23 | UACGUAGAUGGUUUUCCCCUGAUAGUGCUAAGGGGGCCUGGAAGUUUGGACUGGGCAGAGCUCAACACAGCGUGGCAAAGUGGCUGUGGCUAGACUGCCUCUCUGGAUUCCUCGUCACUCAGCAGGGCAUCCCUGAGAGAAAUGCC [G8A U132C] | 1.58
24 | UACGUAGGUGGUUUCCCCCUGAUAGUGCUAAGGGGGCCUGGAAGUUUGGACUGGGCAGAGCUCAACACAGCGUGGCAAAGUGGCUGUGGCUUGACUGCCUCUCUGGAUUCCUCGUCACUCAGCAGGGCAUCUCUGAGAGAAAUGCC [U15C A92U] | 0.79
25 | UACGUAGGUGGUUUUCACCUGAUAGUGCUAAGGGGGCCUGGAAGUUUGGACUGGGCAGAGCUCAACACAGCGUGGCAAAGUGGCUGUGGCUAGACUGCCUCUCUGGAUUCCUCGUCACUCAGCAGGGCAUCUCCGAGAGAAAUGCC [C17A U134C] | 1.11
26 | CACGUAGGUGGUUUUCCCCUGAUAGUGCUAAGGGGGCCUGGAAGUCUGGACUGGGCAGAGCUCAACACAGCGUGGCAAAGUGGCUGUGGCUAGACUGCCUCUCUGGAUUCCUCGUCACUCAGCAGGGCAUCUCUGAGAGAAAUGCC [U1C U46C] | 1.11
27 | UACGUAGGUGGUUUUCCCCUGAUAGUGCUAAGGGGGCCUGGAAGUUUGGACUGGGCAGAGCUCAACCCAGCGUGGCAAAGUGGCUGUGGCUAGACUGCCUCCCUGGAUUCCUCGUCACUCAGCAGGGCAUCUCUGAGAGAAAUGCC [A67C U102C] | 0.04
28 | UACGUAAGUGGUUUUCCCCUGAUAGUGCUAAGGGGGCCUGGAAGUUUGGACUGGGCAGAGCUCAACACAGAGUGGCAAAGUGGCUGUGGCUAGACUGCCUCUCUGGAUUCCUCGUCACUCAGCAGGGCAUCUCUGAGAGAAAUGCC [G7A C71A] | 0.29
29 | UACGUAGGUGGUUUUCCCCUGAUAGUGCUAAGGGGGCCUGGAAGUUUGGACUGGGCGGAGCUCAACACAGCGUGGCAAAGUGGCUGUGGCUAGACUGCCUCUCUGGAUUCCUCGCCACUCAGCAGGGCAUCUCUGAGAGAAAUGCC [A57G U115C] | 1.3
30 | UACGUAGGUGGUUUUCCCCUGAUAGUGCUAAGGGGGCCUGGAAGUUUGGACUGGGCAGAGCUCAACACAGCGUGGCAAAGUGGCUGAGGCUAGACUGCCUCUCUGGAAUCCUCGUCACUCAGCAGGGCAUCUCUGAGAGAAAUGCC [U87A U108A] | 0.06
31 | UACGUAGGUGGUUUUCCCCUGAUAGUGCUAAGGGGGCCUGGAAGUUUGGACUGGGCAGAGCUCAACACAGCGUGGCAAAGUGUCUGUGGCUAGACUGCCUCUCUGGAUUCCUCGUCACUCAGCGGGGCAUCUCUGAGAGAAAUGCC [G83U A124G] | 0.36
32 | UUCGUAGGUGGUUUUCCCCUGAUAGUGCUAAGGGGGCCUGGAAGUUUGGACUGGGCAGAGCUCAACACAGCGUGGCAAAGUGGCUGUGGCUAGACUGCCUCUCUGGAUUCCUCGUCACUCAGCAGGGCAUCUCUGAGGGAAAUGCC [A2U A138G] | 1.06
33 | UACGUAGGUGGUUUUCCCCUGAUAGUGCUAAGGGGGCCUGGAAGUUUGGACUGGGCAGAGCUCAACACAGCGUGGCAAAGUGGCUGUGGCUAGACUGCCUCUCUGGAUUCCUCGUCCCGCAGCAGGGCAUCUCUGAGAGAAAUGCC [A117C U119G] | 2.43
34 | UACGUAGGUGGUUUUCCCCUAAUAGUGCUAAGGGGGCCUGGAAGUUUGGACUGGGCAGAGCUCAACACAGCGUGGCAAAGUGGCUGUGGCUAGACUGCCUCCCUGGAUUCCUCGUCACUCAGCAGGGCAUCUCUGAGAGAAAUGCC [G21A U102C] | 1.79
35 | UACGUAGGUAGUUUUCCCCUGAUAGUGCUAAGGGGGCCUGGAAGUUUGGACUGGGCAGAGCUCAACACAGCGUGGCAAAGUGGCUGUGGCUAGACUGCCUCUCUGGAUUCCUCGUCACUCAGCAGGGCAUCUUUGAGAGAAAUGCC [G10A C133U] | 1.31
36 | UACGUAGGUGGUUUUCCCCUGAUAGUGCUAAGGGGGCCUGGAAGUUUGGACUGGGCAGGGCUCAACACAGCGUGGCAAAGUGGAUGUGGCUAGACUGCCUCUCUGGAUUCCUCGUCACUCAGCAGGGCAUCUCUGAGAGAAAUGCC [A59G C84A] | 0.04
37 | UACGUAGGUGGUUUUCCCCUGAUAGUGCUAAGGGGGCCUGGAAGUUUGGACUGGGCAGAGCUCAACACAGCGUGGCAAAGUGGCUGUGGCUAGACUGCCUCCCUGGAUUCCUCGUCACUCAGCAGGGCAUCUCAGAGAGAAAUGCC [U102C U134A] | 1.59
38 | UACGUAGGUGGUUCUCCCCUGAUAGUGCUAGGGGGGCCUGGAAGUUUGGACUGGGCAGAGCUCAACACAGCGUGGCAAAGUGGCUGUGGCUAGACUGCCUCUCUGGAUUCCUCGUCACUCAGCAGGGCAUCUCUGAGAGAAAUGCC [U14C A31G] | 1.24
39 | UACGUAGGUGGUUUUCCCCUGAUAGUGCUAAGGGGGCCUGGAAGUUUGGGCUGGGCAGAGCUCAACACAGCGUGGCAACGUGGCUGUGGCUAGACUGCCUCUCUGGAUUCCUCGUCACUCAGCAGGGCAUCUCUGAGAGAAAUGCC [A50G A79C] | 1.02
